Test results: patent US9212226B2, “Amino acid sequences directed against CXCR4 and other GPCRs and compounds comprising the same” (Ablynx N.V., priority 2008, dated 2015)
One block for each molecule: values may come before it.

How the values were obtained:
CXCR4 [1] = target: T1, CXCR4 (Homo sapiens, UniProt P61073); experiment: [125I]-CXCL12 competition binding on membranes from HEK293T cells transiently expressing CXCR4; details: for affinity to CXCR4: in words; for displacement of specifically bound [125I]-CXCL12: purified ligands, highest Nanobody test concentration 0.5 μM; for Binding (binding efficiency, competition binding with [125I]-CXCL12): screening of Nanobody clone pools
Procedure: (§1) HEK293T cells were maintained at 37° C. in a humidified 5% CO2, 95% air atmosphere in Dulbecco's modified Eagle's medium (DMEM) containing 2 mM L-glutamine, 50 IU/ml penicillin, 50 μg/ml streptomycin, and 10% (v/v) fetal calf serum. Jurkat cells were cultured in a humidified 5% CO2, 95% air atmosphere in a 1:1 mixture of Dulbecco's modified Eagle's medium (DMEM) and Ham's F12 medium containing 2 mM L-glutamine, 50 IU/ml penicillin, 50 μg/ml streptomycin, and 10% (v/v) fetal calf serum. […] [^125 I]-Labelling— Radiolabeling of Nanobodies with ^125I was performed using the Iodo-gen method (Pierce, Rockford, Ill.) according to the manufacturer's protocol. ^125I-labeled Nanobodies was separated from free iodine (>99%) using a Sephadex G-25 gel filtration column (Amersham Biosciences, Piscataway, N.J.). […] Competition Binding Assays— Membranes from HEK293T cells transiently expressing CXCR3 or CXCR4 were prepared 48 h after transfection as follows. Cells were washed and scraped from the cell culture dishes with ice-cold PBS containing 1 mm EDTA. The scraped cells were pelleted at 1500×g for 10 min at 4° C. The pellet was washed and then resuspended in ice-cold membrane buffer (15 mM Tris, pH 7.5, 1 mM EGTA, 0.3 mM EDTA, and 2 mM MgCl2). The cell suspension was homogenized by 10 strokes at 1200 rpm using a Teflon-glass homogenizer and rotor and further subjected to three freeze-thaw cycles using liquid nitrogen. Membranes were separated by centrifugation at 40,000 g for 25 min at 4° C. The membrane pellet was washed and resuspended in ice-cold Tris-sucrose buffer (20 mM Tris, pH 7.4, and 250 mM sucrose) and frozen in liquid nitrogen. The total protein was determined using a Bradford assay (Bio-Rad). […] Membranes were then harvested over polyethylenimine (0.5%)-treated Whatman GF/C filter plates and washed three times with ice cold binding buffer containing 500 mM NaCl. Plates were counted by liquid scintillation. Inositol Phosphate Accumulation Assay— 24 hours post transfection with pcDNA3.1-CXCR4 and pcDNA1-HA-mG {alpha} qi5 (see Verzijl et al, 2008 supra), 250.000 cells were seeded into 24-wells plates and labelled overnight using inositol-free minimal essential medium supplemented with 1 μCi myo-[2-^3H]-inositol. The next day, the cells were washed once to remove not incorporated myo-[2-^3H]-inositol. […] In agonist experiments, the cells were directly stimulated with test compounds and LiCl (10 mM) in assay buffer for 2 h at 37° C. The stimulation was stopped by aspirating the stimulation medium and adding ice-cold 10 mM formic acid. The accumulated inositol phosphates were isolated by anion exchange chromatography and counted by liquid scintillation. CRE Reporter Gene Assay— HEK239T cells were transfected with pCRE/β-galactosidase (Chen W, Shields T S, Stork P J S, Cone R D (1995) Anal Biochem 226:349-354) and plasmids (pcDEF3 or pcDNA3.1) encoding the indicated receptors. 40,000 transfected cells per well were seeded into 96 well plates and grown in DMEM supplemented with 10% fetal calf serum. The medium was replaced 32 h after transfection by serum-free DMEM supplemented with 0.5% bovine serum albumin and ligands as indicated. […] The β-galactosidase activity was determined by the measurement of absorption at 420 nm with a PowerwaveX340 plate reader (Bio-Tek Instruments Inc., Winooski, Vt.) after incubation with the assay buffer when the OD420 value for forskolin (3 μM) controls reached 0.4-0.6. Chemotaxis Assay— The chemotactic responsiveness of Jurkat 3D cells was assessed using ChemoTx™ plates (Receptor Technologies Ltd., Oxon, UK) in which a upper cell-containing compartment is separated from a lower chemoattractant-containing compartment by a polyvinylpyrollidone-free polycarbonate filter with 5-μm pores. Cells were harvested, washed and resuspended in RPMI containing 0.5% bovine serum albumin and then loaded to 150,000 cells per well in a volume of 25 μl into the upper compartment of the chemotaxis chamber.
Target sequence in this assay (P61073 whole entry): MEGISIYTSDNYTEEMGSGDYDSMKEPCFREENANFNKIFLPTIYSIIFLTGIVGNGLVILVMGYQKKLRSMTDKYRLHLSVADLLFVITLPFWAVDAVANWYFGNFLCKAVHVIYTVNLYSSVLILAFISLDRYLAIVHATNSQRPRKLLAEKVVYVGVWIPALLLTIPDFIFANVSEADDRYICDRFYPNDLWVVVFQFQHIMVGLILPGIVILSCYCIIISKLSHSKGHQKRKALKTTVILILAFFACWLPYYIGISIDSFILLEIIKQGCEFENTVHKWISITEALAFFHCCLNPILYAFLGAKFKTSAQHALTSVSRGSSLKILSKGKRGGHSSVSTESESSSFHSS

CXCR4 [2] = target: T1, CXCR4; experiment: Phage ELISA binding assay on CHO-CXCR4 versus CHO membranes; set-up: expressed in transfected cells; host or cells: CHO cells (membrane preparation); details: monoclonal phages, CHO-CXCR4 vs CHO membranes
Procedure: FIG. 2. Results from Phage ELISA (as described in example 1.5).
In order to determine binding specificity of the Nanobodies, 15 ul of the produced phage were tested in an Phage ELISA binding assay.
In short, 2 ug in 100 ul PBS of membrane expressing either CXCR4 (CHO-CXCR4) or a non relevant GPCR(CHO) were coated directly on Maxisorp microtiter plates (Nunc) overnight at 4 C. Free binding sites were blocked using 4% Marvel in PBS for 1 h. Next, 15 ul of monoclonal phages was added in 100 ul 1% Marvel PBS for 2 hours. […] Binding specificity (binding to CHO-CXCR4) was determined based on OD values compared to controls (binding to CHO).
Target sequence in this assay (P61073 with tags, fused parts or gaps isoform P61073-2 limits assumed): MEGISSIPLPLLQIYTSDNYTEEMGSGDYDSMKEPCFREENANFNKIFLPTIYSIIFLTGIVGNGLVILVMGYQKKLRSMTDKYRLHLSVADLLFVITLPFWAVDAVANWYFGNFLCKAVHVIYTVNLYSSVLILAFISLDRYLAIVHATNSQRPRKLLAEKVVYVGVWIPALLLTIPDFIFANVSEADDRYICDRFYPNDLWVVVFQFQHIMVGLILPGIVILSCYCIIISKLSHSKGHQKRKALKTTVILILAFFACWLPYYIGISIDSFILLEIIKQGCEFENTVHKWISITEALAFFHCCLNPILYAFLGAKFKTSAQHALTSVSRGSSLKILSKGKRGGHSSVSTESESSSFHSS

CXCR4 [3] = target: T1, CXCR4; experiment: [125I]-238D4 competition binding on membranes from HEK293T cells transiently expressing CXCR4; details: membranes from HEK293T cells transiently expressing CXCR4; mean ± S.E.M.
Procedure: as §1
Target sequence in this assay (P61073 whole entry): as the sequence (P61073 whole entry) above

[4] = membranes from HEK293T cells transiently expressing CXCR4, mean ± S.E.M.
[5] = membranes from HEK293T cells transiently expressing CXCR4

- affinity to CXCR4 (CXCR4 [1]): low nanomolar range
- Displacem. (%) of [125I]-CXCL12 (maximal displacement) (CXCR4 [1]; [4]): 93 ± 5%
- pKi, [125I]-CXCL12 (CXCR4 [1]; [4]): 8.01 ± 0.12
- displacement of specifically bound [125I]-CXCL12 (CXCR4 [1]): fully displace
- Binding (binding efficiency, competition binding with [125I]-CXCL12) (CXCR4 [1]; [5]): ++ (++ = 70-100%)
- specificity toward CXCR4 expressing membrane compared to non-expressing membrane (CXCR4 [2]): high specificity
B1: 238D2: Nanobody (VHH) raised against human CXCR4, SEQ ID NO: 238 (protein)
VHH: EVQLVESGGGLVQTGGSLRLSCAASGFTFSSYAMSWVRQAPGKGLEWVSGIKSSGDSTRYAGSVKGRFTISRDNAKNMLYLQMYSLKPEDTAVYYCAKSRVSRTGLYTYDNRGQGTQVTVSS
modifications: Nanobody, Nanobody constructs or fragments thereof

- affinity to CXCR4 (CXCR4 [1]): low nanomolar range
- displacement of specifically bound [125I]-CXCL12 (CXCR4 [1]): fully displace
- Binding (binding efficiency, competition binding with [125I]-CXCL12) (CXCR4 [1]; [5]): ++ (++ = 70-100%)
- Displacem. (%) of [125I]-238D4 (maximal displacement) (CXCR4 [3]): 103 ± 1%
B2: 238D4: Nanobody (VHH) raised against human CXCR4, SEQ ID NO: 239 (protein)
VHH: EVQLMESGGGLVQAGGSLRLSCAASGRTFNNYAMGWFRRAPGKEREFVAAITRSGVRSGVSAIYGDSVKDRFTISRDNAKNTLYLQMNSLKPEDTAVYTCAASAIGSGALRRFEYDYSGQGTQVTVSS
modifications: Nanobody, Nanobody constructs or fragments thereof
